Positions of bridges follow the written chain, without caps; N, C: chain ends. No end group written: not given here.
Tests used:
FcγIII [1] = test: reverse ELISA: PAP on FcγIII-coated plate, no inhibitor
Histone (Sigma) [2] = test: reverse ELISA: binding of histones to IgG PAP immune complexes, no inhibitor
FcγIII [3] = test: reverse ELISA: rabbit PAP on FcγIII-coated plate, no inhibitor
FcγIIa [4] = test: reverse ELISA: PAP on FcγIIa-coated plate, no inhibitor
whole human IgG4 = test: reverse ELISA: immune complexes on IgG4-coated plate, no inhibitor
[5] = target: myelin basic protein (MBP, Sigma); test: reverse ELISA: binding of MBP to IgG PAP immune complexes, no inhibitor
human C1q (human) [6] = target: human C1q (human) (UniProt P02745); test: reverse ELISA: PAP on C1q-coated plate, no inhibitor
human C1q (human), sequence (P02745 23-245 limits assumed, chain 1 of 3): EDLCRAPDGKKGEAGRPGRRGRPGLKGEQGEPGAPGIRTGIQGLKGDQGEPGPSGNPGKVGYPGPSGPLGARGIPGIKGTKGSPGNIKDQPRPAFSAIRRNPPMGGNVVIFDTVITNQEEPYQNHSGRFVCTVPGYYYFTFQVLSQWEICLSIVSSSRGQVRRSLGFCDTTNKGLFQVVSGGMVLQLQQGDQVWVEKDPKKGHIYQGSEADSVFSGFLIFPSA
human C1q (human), sequence (P02746 28-253 limits assumed, chain 2 of 3, further chain): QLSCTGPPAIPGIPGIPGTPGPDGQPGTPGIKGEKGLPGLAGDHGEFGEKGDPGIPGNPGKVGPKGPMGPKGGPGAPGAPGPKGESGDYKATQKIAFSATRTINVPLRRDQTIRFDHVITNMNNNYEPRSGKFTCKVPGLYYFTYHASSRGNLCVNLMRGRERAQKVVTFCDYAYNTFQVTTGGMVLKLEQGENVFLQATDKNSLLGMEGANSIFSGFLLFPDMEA
human C1q (human), sequence (P02747 29-245 limits assumed, chain 3 of 3, further chain): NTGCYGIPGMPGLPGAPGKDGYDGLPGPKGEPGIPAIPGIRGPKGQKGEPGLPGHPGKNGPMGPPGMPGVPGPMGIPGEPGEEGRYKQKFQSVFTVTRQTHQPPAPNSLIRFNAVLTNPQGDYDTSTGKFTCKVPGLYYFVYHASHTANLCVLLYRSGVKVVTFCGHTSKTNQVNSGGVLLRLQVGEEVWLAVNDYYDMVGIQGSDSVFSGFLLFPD

[7] = target: myelin basic protein (MBP, Sigma); test: reverse ELISA: rabbit PAP on MBP-coated plate, no inhibitor
Histone (Sigma) [8] = test: reverse ELISA: rabbit PAP on histone-coated plate, no inhibitor
FcγIIb [9] = test: reverse ELISA: rabbit PAP on FcγIIb-coated plate, no inhibitor
FcγIIb, sequence (P31994 43-217): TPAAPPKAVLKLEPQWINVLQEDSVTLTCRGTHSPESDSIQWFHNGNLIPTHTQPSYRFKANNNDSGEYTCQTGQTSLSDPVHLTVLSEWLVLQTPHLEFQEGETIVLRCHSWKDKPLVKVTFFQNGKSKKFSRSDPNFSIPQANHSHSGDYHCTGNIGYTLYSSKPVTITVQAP

FcγIIb [10] = test: reverse ELISA: PAP on FcγIIb-coated plate, no inhibitor
human C1q (human) [11] = target: human C1q (human) (UniProt P02745); test: reverse ELISA: rabbit PAP on C1q-coated plate, no inhibitor
FcγIIa [12] = test: reverse ELISA: rabbit PAP on FcγIIa-coated plate, no inhibitor
[13] = target: peroxidase-anti-peroxidase (PAP) immune complex (preformed immune complex of peroxidase and anti-peroxidase IgG); test: reverse ELISA, competition: soluble MBP pre-incubated with rabbit PAP, then MBP-coated plate; lower = more inhibition
[14] = target: peroxidase-anti-peroxidase (PAP) immune complex (preformed immune complex of peroxidase and anti-peroxidase IgG); test: reverse ELISA, competition: soluble histone pre-incubated with rabbit PAP, then histone-coated plate; lower = more inhibition
[15] = target: peroxidase-anti-peroxidase (PAP) immune complex (preformed immune complex of peroxidase and anti-peroxidase IgG); test: reverse ELISA, competition: pre-incubated with rabbit PAP, then C1q-coated plate (competitor: C1q); lower = more inhibition
[16] = target: peroxidase-anti-peroxidase (PAP) immune complex (preformed immune complex of peroxidase and anti-peroxidase IgG); test: reverse ELISA, competition: pre-incubated with rabbit PAP, then FcγIIa-coated plate (competitor: FcγIIa); lower = more inhibition
[17] = target: peroxidase-anti-peroxidase (PAP) immune complex (preformed immune complex of peroxidase and anti-peroxidase IgG); test: reverse ELISA, competition: pre-incubated with rabbit PAP, then FcγIIb-coated plate (competitor: FcγIIb); lower = more inhibition
[18] = target: peroxidase-anti-peroxidase (PAP) immune complex (preformed immune complex of peroxidase and anti-peroxidase IgG); test: reverse ELISA, competition: pre-incubated with rabbit PAP, then RF-coated plate (competitor: RF); lower = more inhibition
[19] = target: peroxidase-anti-peroxidase (PAP) immune complex (preformed immune complex of peroxidase and anti-peroxidase IgG); test: reverse ELISA, competition: pre-incubated with rabbit PAP, then FcγIII-coated plate (competitor: FcγIII); lower = more inhibition
[20] = target: human monomeric IgG (Research Diagnostics); test: RF test, competition: peptide pre-incubated 1 hour with human monomeric IgG, washed, then 200 I.U. RF (competitor); OD = RF bound, lower = more inhibition
[21] = target: peroxidase-anti-peroxidase (PAP) immune complex (preformed immune complex of peroxidase and anti-peroxidase IgG); test: reverse ELISA, competition: pre-incubated with PAP, then FcγIIb-coated plate (competitor: FcγIIb); lower = more inhibition
[22] = target: human monomeric IgG (Research Diagnostics); test: RF test, competition: peptide pre-incubated with human monomeric IgG, washed, then 200 I.U. RF (competitor); OD = RF bound, lower = more inhibition
[23] = target: peroxidase-anti-peroxidase (PAP) immune complex (preformed immune complex of peroxidase and anti-peroxidase IgG); test: reverse ELISA, competition: pre-incubated with PAP, then FcγIIa-coated plate (competitor: FcγIIa); lower = more inhibition
[24] = target: peroxidase-anti-peroxidase (PAP) immune complex (preformed immune complex of peroxidase and anti-peroxidase IgG); test: reverse ELISA, competition: pre-incubated with PAP, then C1q-coated plate (competitor: C1q); OD = PAP bound, lower = more inhibition
[25] = target: peroxidase-anti-peroxidase (PAP) immune complex (preformed immune complex of peroxidase and anti-peroxidase IgG); test: reverse ELISA, competition: pre-incubated with PAP, then FcγIII-coated plate (competitor: FcγIII); lower = more inhibition
[26] = target: peroxidase-anti-peroxidase (PAP) immune complex (preformed immune complex of peroxidase and anti-peroxidase IgG); test: reverse ELISA, competition: pre-incubated with rabbit PAP, then histone-coated plate (competitor: histone); lower = more inhibition
[27] = target: peroxidase-anti-peroxidase (PAP) immune complex (preformed immune complex of peroxidase and anti-peroxidase IgG); test: reverse ELISA, competition: pre-incubated with PAP, then RF-coated plate (competitor: RF); lower = more inhibition
[28] = target: peroxidase-anti-peroxidase (PAP) immune complex (preformed immune complex of peroxidase and anti-peroxidase IgG); test: reverse ELISA, competition: pre-incubated with rabbit PAP, then MBP-coated plate (competitor: MBP); lower = more inhibition
[29] = target: peroxidase-anti-peroxidase (PAP) immune complex (preformed immune complex of peroxidase and anti-peroxidase IgG); test: reverse ELISA, competition: peptide with immune complexes, IgG4-coated plate (competitor: IgG4); lower = more inhibition

FcγIIa, sequence (P12318 34-217): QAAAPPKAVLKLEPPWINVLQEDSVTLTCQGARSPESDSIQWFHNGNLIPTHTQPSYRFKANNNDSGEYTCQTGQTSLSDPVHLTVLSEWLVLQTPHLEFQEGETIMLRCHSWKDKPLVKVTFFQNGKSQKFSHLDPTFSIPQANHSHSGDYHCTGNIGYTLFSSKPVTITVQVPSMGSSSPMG

Row | Molecule | OD 450 nm [21] [OD] | OD 405 nm [22] [OD] | OD 450 nm [23] [OD] | OD 405 nm [24] [OD] | OD 450 nm [25] [OD] | OD 405 nm [26] [OD] | OD 405 nm [27] [OD] | OD 405 nm [28] [OD] | OD 405 nm [29] [OD] | further results
1 | peroxidase-anti-peroxidase (PAP) immune complex (preformed immune complex of peroxidase and anti-peroxidase IgG) |  |  |  |  |  |  |  |  |  | OD 450 nm (FcγIII [1]): 3.6 OD; OD 405 nm (Histone (Sigma) [2]): 2.11 OD; OD 405 nm (FcγIII [3]): 1.59 OD; OD 450 nm (FcγIIa [4]): 3.6 OD; OD 405 nm (whole human IgG4): 0.716 OD; OD 405 nm [5]: 2.34 OD; OD 405 nm (human C1q (human) [6]): 0.467 OD; OD 405 nm [7]: 1.03 OD; OD 405 nm (Histone (Sigma) [8]): 1.27 OD; OD 405 nm (FcγIIb [9]): 1.39 OD; OD 450 nm (FcγIIb [10]): 3.6 OD; OD 405 nm (human C1q (human) [11]): 2.35 OD; OD 405 nm (FcγIIa [12]): 1.6 OD
2 | myelin basic protein (MBP, Sigma) |  |  |  |  |  |  |  |  |  | OD 405 nm [13]: 0.139 OD
3 | Histone (Sigma) |  |  |  |  |  |  |  |  |  | OD 405 nm [14]: 0.057 OD
4 | DCAFHLGELVWCT (cyclized by a disulfide bond between the two cysteine residues) [… peptide (SEQ ID NO:3)] |  |  |  |  |  |  |  |  |  | OD 405 nm [15]: 0.859 OD; OD 405 nm [16]: 0.66 OD; OD 405 nm [17]: 0.51 OD; OD 405 nm [18]: 0.267 OD; OD 405 nm [19]: 0.81 OD; OD 405 nm [20]: 0.962 OD
5 | DCAAHLGELAACT (cyclized by a disulfide bond between the two cysteine residues) [… peptide (SEQ ID NO:40)] | 2.26 | 1.42 | 2.43 | 0.458 | 2.41 |  |  |  |  | 
6 | DCAWHLGELAACT (cyclized by a disulfide bond between the two cysteine residues) [… peptide (SEQ ID NO:42)] | 1.07 | 1.4 | 1.48 |  | 1.34 | 0.729 | 0.622 | 0.706 | 0.557 | 
7 | PCARHLGELVWCT (disulfide 2-12 (inferred)) [… peptide (SEQ ID NO:41)] | 1.21 | 1.32 | 1.15 | 0.205 | 1.6 | 0.444 | 0.106 | 0.489 | 0.129 | 
8 | RCARHLGELVWCT (disulfide 2-12 (inferred)) [… peptide (SEQ ID NO:5)] | 3.28 | 1.31 | 3.4 | 0.247 | 3.5 | 0.359 | 0.152 | 0.569 | 0.191 | 
9 | DCARHLGELVWCT (disulfide 2-12 (inferred)) [… peptide (SEQ ID NO:4)] | 1.95 | 1.23 | 2.54 | 0.193 | 2.53 | 0.363 | 0.109 | 0.473 | 0.096 | 
10 | APPDCARHLGELVWCT (cyclized by a disulfide bond between the two cysteine residues) [… peptide (printed in Table 8 with SEQ ID NO:14)] |  |  |  |  |  |  |  |  | 0.107 | 
